Assay results as given in paper PMC3014015, “Structural Insights into Substrate Specificity in Variants of N-Acetylneuraminic Acid Lyase Produced by Directed Evolution” (Journal of Molecular Biology, 2010).

How the values were obtained:
[1] = test system: T1, CCCN(CCC)C(=O)[C@H](O)[C@H](O)C(O)CC(=O)C(=O)O; experiment: steady-state kinetics (Km), coupled lactate dehydrogenase/NADH assay; assay type: biochemical, Escherichia coli
T1 construct: hexa-His-tagged protein

[2] = biological target: E192N variant of Escherichia coli N-acetylneuraminic acid lyase (Escherichia coli); experiment: crystal structure; space group P2_(1), four crystallographically independent subunits (tetramer); crystals grown at 4 °C by sitting drop in 100 mM Tris-HCl pH 8.0-8.30, 200 mM NaCl, 18% (wt/vol) PEG 3350; some crystals soaked with 100 mM pyruvate and 70 mM THB
[3] = biological target: T2, N-acetylneuraminic acid lyase (Escherichia coli, UniProt P0A6L4, E192N); experiment: coupled cleavage assay of purified enzyme; crystal soaking gave only the cleavage product pyruvate; assay type: biochemical
T2 construct: gene nanA; hexa-His-tagged protein
T2 sequence (P0A6L4 2-297 E192N): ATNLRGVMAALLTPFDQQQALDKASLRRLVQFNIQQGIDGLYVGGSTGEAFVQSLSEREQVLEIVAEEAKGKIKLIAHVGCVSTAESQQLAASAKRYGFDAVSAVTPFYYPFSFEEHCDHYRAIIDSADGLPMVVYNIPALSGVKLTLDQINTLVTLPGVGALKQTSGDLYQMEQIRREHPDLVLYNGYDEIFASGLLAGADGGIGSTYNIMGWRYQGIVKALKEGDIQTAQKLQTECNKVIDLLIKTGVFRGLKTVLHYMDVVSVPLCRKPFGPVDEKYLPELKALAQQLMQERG

[4] = biological target: T3, N-acetylneuraminic acid lyase (Escherichia coli, UniProt P0A6L4, E192Q); experiment: steady-state kinetics (Km), coupled lactate dehydrogenase/NADH assay; assay type: biochemical; details: read-out: Neu5Ac / Km
T3 construct: gene nanA; hexa-His-tagged protein
T3 sequence (P0A6L4 2-297 E192Q): T2 sequence (P0A6L4 2-297 E192N)

| Compound | Km [1] [mM] | kcat [1] [s⁻¹] | kcat/Km [1] [M⁻¹ s⁻¹] | stoichiometry N [2] | coupled cleavage assay of purified enzyme; crystal soaking gave only the cleavag [3] | Km [4] [mM] |
| --- | --- | --- | --- | --- | --- | --- |
| N-acetylneuraminic acid lyase (Escherichia coli K-12; E192Q) | 0.7 ± 0.05 | 2.83 ± 0.0667 | 4170 |  |  |  |
| N-acetylneuraminic acid lyase (Escherichia coli K-12; E192P) | 0.2 ± 0.02 | 0.817 ± 0.0167 | 4330 |  |  |  |
| E192N variant of Escherichia coli N-acetylneuraminic acid lyase (enzyme) |  |  |  | 4 |  |  |
| N-acetylneuraminic acid lyase (Escherichia coli K-12; E192F) | 0.3 ± 0.02 | 1.47 ± 0.0333 | 5170 |  |  |  |
| CCCN(CCC)C(=O)[C@H](O)[C@H](O)C(O)CC(=O)C(=O)O (stereo partly drawn) [DPAH, (5R,6R)-7-(dipropylamino)-4,5,6-trihydroxy-2,7-dioxoheptanoic acid] |  |  |  |  | confirmed that the E192N enzyme had the highest activity for DPAH |  |
| N-acetylneuraminic acid lyase (Escherichia coli K-12; E192M) | 0.2 ± 0.03 | 1.17 ± 0.05 | 5330 |  |  |  |
| N-Acetylneuraminic acid [Neu5Ac] |  |  |  |  |  | 3.5 ± 0.5 |
